# Laboratory results from patent US10806798B2, “Compound with effects of thrombolysis, free radical scavenging and thrombus-targeting” (Shanghai Lumosa Therapeutics Co., Ltd., priority 2012, dated 2020).
# Bridge positions count the residues as written; N and C are the ends. Peptide text beside a SMILES is read from it. I, II: the chains in the order shown. * marks the point of attachment. X1 = CC1(C)N([O])C(c2ccc(OCC(=O)*)cc2)=[N+]([O-])C1(C)C
# How the values were obtained:
# [1] = test system: rats with stroke; experiment: Treatment 6 h after the onset of stroke, Ie 5 μmol/kg initially then 2 μmol/kg (Zealonga scores); format: in vivo, SD rats; conditions: Ie 5 μmol/kg on day 1 (6 h after onset), 2 μmol/kg per day for 5 days
# Procedure: (§1) The efficacy was represented by neural function scores, and a lower score indicates higher efficacy. A 10% chloral hydrate solution was injected intraperitoneally into male SD rats at a dosage of 400 mg/kg body weight for anesthesia. A longitudinal open incision was made at the center of the neck, and the right common carotid artery trunk was dissected (about 3 cm in length). Carotid external artery branches were each dissected and ligated at the hyoid level, and the carotid internal artery was dissected at the swollen part of the neck. The open incision in the carotid internal artery and the proximal end of the common carotid artery were occluded respectively with noninvasive arterial clips, and the distal end of the carotid external artery was ligated. A catheter containing 0.5 mL thrombus suspension in normal saline was inserted in the carotid external artery trunk. At the same time when the clip on the carotid internal artery was released, the 0.5 mL thrombus suspension in normal saline in the catheter slowly flew from the carotid external artery to its proximal end, and then was injected into the arteries in brain through the carotid internal artery. […] The rats were compared to themselves each day, and evaluated for the degree of damage in neural function by the Zealonga method. […]
# [2] = test system: rats with stroke; experiment: Treatment 24 h after the onset of stroke, Ie 5 μmol/kg initially then 2 μmol/kg (Zealonga scores); format: in vivo, SD rats; conditions: Ie 5 μmol/kg on day 1 (24 h after onset), 2 μmol/kg per day for 5 days
# Procedure: as §1, with “score indicates a higher efficacy.” for “score indicates higher efficacy.”, “The open incisions in the” for “The open incision in the”
# [3] = test system: rats with stroke; experiment: Treatment 6 h after the onset of stroke induced by aged thrombus, Ie 2 μmol/kg (Zealonga scores); format: in vivo, SD rats; conditions: 2 μmol/kg Ie per day for 6 days from 6 h after onset
# Procedure: as §1, with “score indicates a higher efficacy.” for “score indicates higher efficacy.”, “The open incisions in the” for “The open incision in the”
# [4] = FT-MS monitoring of metabolic products in brain tissues of rats treated with Ie; format: in vivo
# Procedure: The entire rat brain was taken out and placed into a 50 mL centrifuge tube, into which 10 mL 0.9% NaCl was added, and homogenized to obtain a uniform suspension which was then centrifuged at 3000 rpm for 10 min. 5 mL supernatant was added into 10 mL methanol and evenly mixed by shaking, and centrifuged at 3000 rpm for 10 min. The supernatant was concentrated under reduced pressure until dry, followed by addition of 1 mL methanol, and again centrifuged at 12000 rpm for 10 min. The resultant supernatant was used for monitoring of the content of metabolic products in brain tissues in rats treated with compound Ie.
# (MS conditions: loading: 10 μL; ionization mode: ES+; cone voltage: 30 V; mobile phase flow rate: 0.2 mL/min). According to the above data, the metabolic products M1 and M2 were assumed as the following compounds: […]
smiles,measurement,setting,value
"CC(C)[C@H](NC(=O)[C@H](CC(=O)O)NC(=O)CNC(=O)[C@H](CCCNC(=N)N)NC(=O)[C@H](CCCCNC(=O)[C@H](CCCCN)NC(=O)[C@H](C)NC(=O)[C@@H]1CCCN1C(=O)[C@H](CCCNC(=N)N)NC(=O)CN)NC(=O)COc1ccc(C2=[N+]([O-])C(C)(C)C(C)(C)N2[O])cc1)C(=O)O [Ie, 1,3-dioxo-2-{4′-oxyacetyl-[N^ω-(Gly-Arg-Pro-Ala-Lys)-Lys-Arg-Gly-Asp-Val]phenyl}-4,4,5,5-tetramethylimidazoline] (I: H-GRPAK / II: X1-KRGDV-OH; amide I:C-II:1)",rats dead among the 12 rats that received the treatment,[1],two were dead
same,rats dead among the 12 rats that received the treatment,[2],three were dead
same,rats dead among the 12 rats that received the treatment,[3],six were dead
same,crossing of the blood-brain barrier,[4]; concluded from metabolic products found in rat brain,did indeed cross the blood-brain barrier
same,metabolic products in brain tissues,"[4]; rats treated with compound Ie, high-resolution FT-MS",two metabolic products M1 and M2 in the brain
